Where two headings read alike, the source gives them in different places. Square brackets hold non-standard residues; d marks the D form. * marks the point of attachment. FITC = O=C1OC2(c3ccc(O)cc3Oc3cc(O)ccc32)c2ccc(NC(=S)*)cc21; pY = N[C@@H](Cc1ccc(OP(=O)(O)O)cc1)C(=O)O; pS = N[C@@H](COP(=O)(O)O)C(=O)O
T1: TAX1BP3 PDZ (7–124) (human, UniProt O14907 7-124)
T1 sequence: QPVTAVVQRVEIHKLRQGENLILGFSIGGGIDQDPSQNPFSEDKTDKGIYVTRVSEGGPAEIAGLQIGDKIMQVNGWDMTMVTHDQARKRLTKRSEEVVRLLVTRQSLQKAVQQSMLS

T2: SNTA1 PDZ (84–171) (human, UniProt Q13424 84-171)
T2 sequence: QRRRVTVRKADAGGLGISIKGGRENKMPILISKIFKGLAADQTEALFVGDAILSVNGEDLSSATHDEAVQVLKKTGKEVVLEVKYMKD

T3: DOK1 PTB (151–256) (human, UniProt Q99704 151-256)
T3 sequence: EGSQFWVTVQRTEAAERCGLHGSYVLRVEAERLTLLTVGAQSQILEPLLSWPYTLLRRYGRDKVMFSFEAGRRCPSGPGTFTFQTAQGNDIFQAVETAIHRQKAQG

T4: FRS2 PTB (8–136) (human, UniProt Q8WU20 8-136)
T4 sequence: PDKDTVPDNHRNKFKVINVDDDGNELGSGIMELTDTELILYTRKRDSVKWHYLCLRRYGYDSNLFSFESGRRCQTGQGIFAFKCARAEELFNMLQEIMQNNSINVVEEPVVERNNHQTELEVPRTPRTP

T5: IRS1 PTB (157–267) (human, UniProt P35568 157-267)
T5 sequence: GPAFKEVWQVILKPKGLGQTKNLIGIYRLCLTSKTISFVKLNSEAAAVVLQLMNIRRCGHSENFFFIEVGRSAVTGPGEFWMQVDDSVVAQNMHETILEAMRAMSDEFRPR

T6: AP2 μ2 (160–435) (human, UniProt Q96CW1 160-435)
T6 sequence: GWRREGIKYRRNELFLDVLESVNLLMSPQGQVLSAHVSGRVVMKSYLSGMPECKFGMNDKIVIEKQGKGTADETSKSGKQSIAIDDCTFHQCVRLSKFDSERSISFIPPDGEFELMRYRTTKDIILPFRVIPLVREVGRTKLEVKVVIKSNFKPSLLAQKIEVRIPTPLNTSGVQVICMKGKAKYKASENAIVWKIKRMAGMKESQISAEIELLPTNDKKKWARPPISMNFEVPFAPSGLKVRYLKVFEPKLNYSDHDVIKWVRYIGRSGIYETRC

B1: FITC-labeled C-terminal peptide of ACE2(796–805) (peptide)
peptide: {FITC}-QNTDDVQTSF-OH
B2: FITC-labeled ACE2(787–798) peptide (peptide)
peptide: {FITC}-SKGENNPGFQNT-NH2
B3: TLN1 PTB (442–770) (domain or fragment)
chain: GVSFFLVKEKMKGKNKLVPRLLGITKECVMRVDEKTKEVIQEWNLTNIKRWAASPKSFTLDFGDYQDGYYSVQTTEGEQIAQLIAGYIDIILK
B4: Mouse SNX17 FERM (109–388) (domain or fragment)
chain: TQQVPTEEVSLEVLLSNGQKVLVTVLTSDQTEDVLEAVAAKLDLPDDLIGYFSLFLVREKEDGAFSFVRKLQEFELPYVSVTSLRSQEYKIVLRKSYWDSAYDDDVMENRVGLNLLYAQTVSDIEHGWILVTKEQHRQLKSLQEKVSKKEFLRLAQTLRHYGYLRFDACVADFPEKDCPVVVSAGNSELSLQLRLPGQQLREGSFRVTRMRCWRVTSSVPLPSGGTSSPSRGRGEVRLELAFEYLMSKDRLQWVTITSPQAIMMSICLQSMVDELMVKKS
B5: FITC-labeled ACE2(775–790) peptide, unphosphorylated (peptide)
peptide: {FITC}-RSGENPYASIDISKGE-NH2
B6: FITC-labeled ACE2(775–790) peptide, pSer783 (peptide)
peptide: {FITC}-RSGENPYA[pS]IDISKGE-NH2
B7: NHERF3 PDZ2 (132–224) (domain or fragment)
chain: QPRLCYLVKEGGSYGFSLKTVQGKKGVYMTDITPQGVAMRAGVLADDHLIEVNGENVEDASHEEVVEKVKKSGSRVMFLLVDKETDKRHVEQK
B8: FITC-labeled ACE2(775–790) peptide, pTyr781 (peptide)
peptide: {FITC}-RSGENP[pY]ASIDISKGE-NH2
B9: FITC-labeled ATG9A(4–14) probe peptide (peptide)
peptide: {FITC}-FDTEYQRLEAS-NH2
B10: FITC-labeled SQSTM1(335–344) probe peptide (peptide)
peptide: {FITC}-DDDWTHLSSK-NH2

Legend:
Experiment in all cases: fluorescence polarisation
SCRIB PDZ1 (718–814) = SCRIB PDZ1 (718–814) (human, UniProt Q14160 718-814)
MAGI1 PDZ1 (1–106) = MAGI1 PDZ1 (1–106) (human, UniProt Q96QZ7 1-106)
TAX1BP3 PDZ (7–124) = target: T1, TAX1BP3 PDZ (7–124)
SNTA1 PDZ (84–171) = target: T2, SNTA1 PDZ (84–171)
DOK1 PTB (151–256) = target: T3, DOK1 PTB (151–256)
TLN2 PTB (309–401) = TLN2 PTB (309–401) (human, UniProt Q9Y4G6 309-401)
FRS2 PTB (8–136) = target: T4, FRS2 PTB (8–136)
IRS1 PTB (157–267) = target: T5, IRS1 PTB (157–267)
[1] = target: B2
[…]2 ATG8 (2–115) [2] = target: T7, […]2 ATG8 (2–115) (human, UniProt P60520 2-115)
LYN SH2 (106–213) = LYN SH2 (106–213) (human, UniProt P07948 106-213)
MAP1LC3B ATG8 (2–119) [3] = target: T8, MAP1LC3B ATG8 (2–119) (human, UniProt Q9GZQ8 2-119)
[4] = target: B1
AP2 μ2 (160–435) = target: T6, AP2 μ2 (160–435)
[…]2 ATG8 (2–115) [5] = target: T7, […]2 ATG8 (2–115); remark: listed apart in the source
MAP1LC3B ATG8 (2–119) [6] = target: T8, MAP1LC3B ATG8 (2–119); remark: listed apart in the source
MAP1LC3C ATG8 (2–125) = MAP1LC3C ATG8 (2–125) (human, UniProt Q9BXW4 2-125)
Sequence of MAP1LC3C ATG8 (2–125) (Q9BXW4 2-125): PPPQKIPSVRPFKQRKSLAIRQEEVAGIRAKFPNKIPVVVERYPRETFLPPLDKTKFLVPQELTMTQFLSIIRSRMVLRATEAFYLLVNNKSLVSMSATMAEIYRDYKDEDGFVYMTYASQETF

T7 sequence (P60520 2-115): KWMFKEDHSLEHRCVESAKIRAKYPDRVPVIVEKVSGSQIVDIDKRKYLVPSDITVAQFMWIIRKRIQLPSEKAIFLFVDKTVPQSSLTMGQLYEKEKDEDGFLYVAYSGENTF
Sequence of TLN2 PTB (309–401) (Q9Y4G6 309-401): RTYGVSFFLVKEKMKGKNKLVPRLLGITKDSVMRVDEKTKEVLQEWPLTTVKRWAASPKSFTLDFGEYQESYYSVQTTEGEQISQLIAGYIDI
Sequence of SCRIB PDZ1 (718–814) (Q14160 718-814): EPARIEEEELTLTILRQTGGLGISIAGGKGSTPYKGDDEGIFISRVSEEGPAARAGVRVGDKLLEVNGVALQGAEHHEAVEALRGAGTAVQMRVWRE
Sequence of MAGI1 PDZ1 (1–106) (Q96QZ7 1-106): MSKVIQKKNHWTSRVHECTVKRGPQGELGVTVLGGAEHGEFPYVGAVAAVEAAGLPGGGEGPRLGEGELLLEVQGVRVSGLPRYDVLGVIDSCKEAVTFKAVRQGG

Binder: B1
- Kd (SCRIB PDZ1 (718–814)): > 100 µM
- Kd (MAGI1 PDZ1 (1–106)): > 100 µM
- Kd (TAX1BP3 PDZ (7–124)): > 100 µM
- Kd (SNTA1 PDZ (84–171)): > 100 µM

Binder: B2
- Kd (DOK1 PTB (151–256)): > 100 µM
- Kd (TLN2 PTB (309–401)): > 100 µM
- Kd (FRS2 PTB (8–136)): > 100 µM
- Kd (IRS1 PTB (157–267)): > 100 µM

Binder: B3
- Kd [1]: > 100 µM

Binder: B4
- Kd [1]: ~100 µM

Binder: B5
- Kd ([…]2 ATG8 (2–115) [2]): > 100 µM
- Kd (LYN SH2 (106–213)): > 100 µM
- Kd (MAP1LC3B ATG8 (2–119) [3]): > 100 µM

Binder: B6
- Kd ([…]2 ATG8 (2–115) [2]): > 100 µM
- Kd (LYN SH2 (106–213)): > 100 µM
- Kd (MAP1LC3B ATG8 (2–119) [3]): > 100 µM

Binder: B7
- Kd [4]: > 100 µM

Binder: B8
- Kd ([…]2 ATG8 (2–115) [2]): > 100 µM
- Kd (MAP1LC3B ATG8 (2–119) [3]): > 100 µM

Binder: B9
- Kd (AP2 μ2 (160–435)): 1640 nM

Binder: B10
- Kd ([…]2 ATG8 (2–115) [5]): 11 µM
- Kd (MAP1LC3B ATG8 (2–119) [6]): 1900 nM
- Kd (MAP1LC3C ATG8 (2–125)): 330 nM
